Assay results taken from patent publication US10654925B2, “Anti-marinobufagenin antibodies and uses thereof” (priority 2018, dated 2020).

Columns and labels:
[1] = Competitive ELISA, free CTS competitors overall (summary and footnote); assay type: binding; conditions: competitors RBG, CINO, OUB, DIG; Table 2
Description: (§1) The specificity (relative affinity) of anti-MBG antibodies for MBG relative to various cardiotonic steroids (CTSs) was determined in a competitive ELISA. Each anti-MBG antibody was tested for its binding to immobilized MBG in the presence of free MBG, resibufogenin (RBG), cinobufagin (CINO), ouabain (OUB) or digoxin (DIG) as a competitor. A constant amount of an anti-MBG antibody (typically 1-5 μg/mL) and varying concentrations of each CTS (from 10^−12M to 10^−5M) were pre-incubated before being added to the MBG-BSA-coated wells. After washing of the wells, an anti-human Fc, HRP-conjugated secondary antibody (at 1:5000 dilution) was added to the wells and incubated at 37° C. for 1 hr. After washing of the wells, an appropriate HRP reagent (e.g., TMB ultra, Thermo Fisher) was added to the wells. OD at 450 nm was measured by a microplate reader. MBG at 10 μM was assumed to be 100% competed, and MBG at 1 pM was assumed to be 0% competed. The data was plotted as a titration of antibody-antigen binding relative to free CTS concentration in the competition reaction to determine the free CTS concentration (μM) giving 50% maximal binding of antibody to immobilized MBG. The relative specificity of an antibody for a CTS was normalized to MBG=100%.

[2] = system: pregnant Sprague-Dawley rats; assay: DOCA/saline rat model of pre-eclampsia; assay type: in vivo; conditions: antibodies 2.2 mg/kg/d i.p. days 16-18 in PDS rats
Description: Female Sprague-Dawley rats (200-250 g, Charles River Laboratories) were acclimatized for 1 week, and mated with male Sprague-Dawley rats (275-300 g). Pregnancy was confirmed by the presence of vaginal plugs or by examination of vaginal smears. Each rat was housed separately.
Five groups of rats were studied (n=10 per group): Group 1 (NP): normal pregnant rats; Group 2 (PDS): pregnant rats injected i.p. initially with 12.5 mg of DOCA in a depot form, followed by a weekly i.p. injection of 6.5 mg of DOCA, and whose drinking water is replaced with 0.9% saline; Group 3 (NPM): Normal pregnant rats given daily injections of MBG (7.65 μg per kg body weight per day) once pregnancy was established on day four of the experiment; Group 4 (PDS-3E9): rats administered DOCA and saline as for Group 2, and also given the murine anti-MBG antibody 3E9 (2.2 mg per kg body weight per day) on days 16, 17, and 18 of pregnancy; and Group 5 (PDS-H3L2): rats administered DOCA and saline as for Group 2, and also given the humanized anti-MBG antibody H3L2 (2.2 mg per kg body weight per day) on days 16, 17, and 18 of pregnancy.
Systolic blood pressure (BP) was measured by tail cuff at days 17-19. At least 3 readings are taken after BP has stabilized, and the mean of these values was calculated. The reported BP values are the mean of the daily measurements. At 18-20 days of pregnancy, 24-hour urine was collected in the absence of food to avoid contamination of the measurement of the protein amount in urine by any fallen food particles. Each rat was housed separately in a metabolic cage during this portion of the study. The 24-hour protein excretion was measured and was normalized to creatinine. The rats were sacrificed after the last measurement on days 18-20, and blood samples were taken. The number of fetal pups was counted and examined. The mean number of pups and any developmental or histological abnormalities in the pups were assessed. Statistical analysis was performed using analysis of variance and Tukey's post hoc test. A p value ≤0.05 was considered statistically significant.

[3] = system: pregnant Sprague-Dawley rats; assay: DOCA/saline rat model of pre-eclampsia; assay type: in vivo; conditions: tail cuff; baseline; antibodies 2.2 mg/kg/d i.p. days 16-18 in PDS (DOCA/saline) rats; MBG 7.65 μg/kg/d in normal pregnant rats (NPM); N = 10
[4] = Competitive ELISA, relative CTS specificity, CINO as competitor; assay type: binding; conditions: competition with immobilized MBG-BSA; normalized to MBG = 100%
Description: as §1

[5] = system: PKC-δ in the nucleus of primary rat cardiac fibroblasts; assay: Inhibition of MBG-induced PKC-δ nuclear translocation (Western blot); conditions: MBG 10 nM; FIG. 2b
Description: MBG was incubated with an anti-MBG antibody prior to addition to cultured primary rat cardiac fibroblasts. Nuclei were isolated 30 min later and analyzed for amount of PKC-6.

[6] = Competitive ELISA, relative CTS specificity, RBG as competitor; assay type: binding; conditions: competition with immobilized MBG-BSA; normalized to MBG = 100%
Description: as §1

[7] = Competitive ELISA, relative CTS specificity, DIG as competitor; assay type: binding; conditions: competition with immobilized MBG-BSA; normalized to MBG = 100%
Description: as §1

[8] = ELISA avidity estimate on MBG-KLH; assay type: binding; conditions: wells coated with 2 μg/ml MBG-KLH; IgG
Description: The avidity of anti-MBG antibodies for MBG was estimated in an ELISA. Wells of a microtiter plate were coated with 2 μg/ml of either MBG-bovine serum albumin (BSA) or MBG-keyhole limpet hemocyanin (KLH). The wells were then blocked with 1% BSA. A test IgG antibody at varying concentrations (typically from about 0.0001 nM to about 25 nM) was added to the wells. The test IgG bound to immobilized MBG was detected with an anti-human Fc, horseradish peroxidase (HRP)-conjugated secondary antibody (Jackson ImmunoResearch). After washing of the wells, an appropriate HRP reagent (e.g., TMB ultra, Thermo Fisher) was added to the wells. Optical density (OD) at 450 nm was measured by a microplate reader. The concentration of test antibody at the midpoint of the binding curve is an estimate of avidity for MBG.

[9] = system: human umbilical cord venous endothelial cells (HUVEC); assay: Reversal of MBG inhibition of HUVEC cell proliferation (3H-thymidine); assay type: cell-based; conditions: MBG 2 nM, antibody 2.5-10 μg/mL, 48 hr; FIG. 3b
Description: MBG (2 nM) was incubated with an antibody (20 μg/mL in FIG. 3a with human anti-MBG mAbs, or varying concentrations (2.5-10 μg/mL) in FIG. 3b with humanized anti-MBG mAbs) prior to addition to cultured human umbilical cord venous endothelial cells (HUVEC). After 48 hr, DNA synthesis was assessed by incorporation of ^3H-thymidine.
HUVEC cells in endothelial cell growth medium were plated onto 96-well plates. The next day, the cells were pretreated with various antibodies (2.5-20 μg/mL) and then incubated with 2 nM MBG for 48 hr. [^3H]-Thymidine was added to each well. [^3H]-Thymidine-labeled DNA was assayed by harvesting the cells and assaying for ^3H using a PerkinElmer Wallac Tailux liquid scintillation counter. […] Means were tested for significance using Student's t-test.

B1: H3L2: humanized anti-MBG antibody, VH H3 (SEQ ID NO: 11) with VL L2 (SEQ ID NO: 13) (antibody, V domains shown)
VH: EVQLQESGPGLVKPSETLSLTCTVSGDSITSGYWNWIRQPPGKGLEYMGYISYSGTTYYNPSLKSRITISRDTSKNQYSLKLSSVTAADTAVYYCARARYGYGFDYWGQGTLVTVSS
VL: DVVMTQSPLSLPVTLGQPASISCRSSQSIVHSNRNTYLEWYQQRPGQSPRLLIYKVSNRFSGVPDRFSGSGSGTDFTLKISRVEAEDVGVYYCFQGSHVPLTFGGGTKVEIK
modifications: Humanized VH sequence; Humanized VL sequence
reaction with CTS competitor molecules [1]: did not react with any of the CTS competitor molecules
% Malformed Pups ([2]; MBG 7.65 μg/kg/d in NPM rats): 0%
No. Pups ([2]; MBG 7.65 μg/kg/d in NPM rats): 12.9 ± 3.2
Urine Protein ([2]; normalized to creatinine, 18-20 days of pregnancy, MBG 7.65 μg/kg/d in NPM rats): 3.5 ± 0.7 mg/24 h
Blood Pressure-Final ([2]; tail cuff, 17-19 d of gestation, MBG 7.65 μg/kg/d in normal pregnant rats (NPM), N = 10): 109.4 ± 11 mm Hg
Blood Pressure-Initial [3]: 104 ± 5 mm Hg
Rel. CTS Specificity as % of MBG Binding: CINO [4]: 0%
PKC-δ translocation into the nucleus, MBG plus antibody [5]: reduced
Rel. CTS Specificity as % of MBG Binding: RBG [6]: 0%
Rel. CTS Specificity as % of MBG Binding: DIG [7]: 0%
Estimated avidity (KA) (antibody concentration at 50% maximal binding to antigen, or EC50), Antigen 2 (MBG-KLH) [8]: 1.5 nM
MBG inhibition of HUVEC cell proliferation, humanized mAbs [9]: significantly reduced
